The record followed here is patent US20230241168A1 (ALPINE IMMUNE SCIENCES, published 2023).

The target in experiment [1] is recombinant human BAFF (human) (UniProt Q9Y275). Briefly: cell-based or functional assay. Details: IC50 APRIL (Δ TACI 30-110-Fc) / IC50 BAFF (Δ TACI 30-110-Fc): unit not given beside the values.
Experiment [2] addresses recombinant human APRIL (human) (UniProt O75888). As to the kind of experiment: cell-based or functional assay. Details: IC50 APRIL (Δ TACI 30-110-Fc) / IC50 BAFF (Δ TACI 30-110-Fc): unit not given beside the values.
The target of experiment [3] is recombinant human BAFF (human) (UniProt Q9Y275). Briefly: cell-based or functional assay. The arrangement: IC50 APRIL (Δ Parental vTD) / IC50 BAFF (Δ Parental vTD): unit not given beside the values.
In experiment [4] the target is recombinant human APRIL (human) (UniProt O75888). As to the kind of experiment: cell-based or functional assay. The arrangement: IC50 APRIL (Δ Parental vTD) / IC50 BAFF (Δ Parental vTD): unit not given beside the values.
For another experiment, the target named is T1, recombinant human BAFF (human, UniProt Q9Y275 134-285).
T1 construct: also called human BAFF (BioLegend)
As to the kind of experiment: told in the description with reference to Example 8 (Jurkat/NF-κB/TACI reporter blockade).

For a further experiment, the target named is T2, recombinant human APRIL (human, UniProt O75888 105-250, limits assumed).
T2 construct: also called human APRIL (Tonbo Biosciences)
T2 sequence (looked up): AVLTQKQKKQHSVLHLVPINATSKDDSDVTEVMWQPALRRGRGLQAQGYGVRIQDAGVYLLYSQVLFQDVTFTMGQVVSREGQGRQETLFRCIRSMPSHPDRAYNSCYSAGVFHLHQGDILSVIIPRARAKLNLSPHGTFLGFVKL
Described as above.

The target of the next experiment is T3, human CD80 (human, UniProt P33681 35-288).
T3 sequence (looked up): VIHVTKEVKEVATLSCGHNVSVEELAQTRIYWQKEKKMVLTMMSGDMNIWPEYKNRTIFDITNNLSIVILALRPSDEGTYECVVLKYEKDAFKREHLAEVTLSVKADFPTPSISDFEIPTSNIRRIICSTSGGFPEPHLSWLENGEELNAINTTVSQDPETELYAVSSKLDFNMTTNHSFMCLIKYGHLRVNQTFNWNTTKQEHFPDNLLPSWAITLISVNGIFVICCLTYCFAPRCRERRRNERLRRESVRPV
As to the kind of experiment: cell-based or functional assay.

The target of a further experiment is T4, human CD86 (human, UniProt P42081 24-329).
T4 sequence (looked up): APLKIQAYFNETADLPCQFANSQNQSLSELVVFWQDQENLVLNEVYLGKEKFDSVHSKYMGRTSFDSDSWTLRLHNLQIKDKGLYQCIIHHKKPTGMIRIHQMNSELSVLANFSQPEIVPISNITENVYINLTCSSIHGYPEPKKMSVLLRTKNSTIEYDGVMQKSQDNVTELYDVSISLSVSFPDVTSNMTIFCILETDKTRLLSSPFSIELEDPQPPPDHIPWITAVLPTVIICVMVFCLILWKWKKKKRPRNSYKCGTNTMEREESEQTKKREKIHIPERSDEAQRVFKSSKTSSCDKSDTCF
Briefly: cell-based or functional assay.

The target in another experiment is T5, human ICOSL (human, UniProt O75144 19-302).
T5 construct: whole, on cells
T5 sequence (looked up): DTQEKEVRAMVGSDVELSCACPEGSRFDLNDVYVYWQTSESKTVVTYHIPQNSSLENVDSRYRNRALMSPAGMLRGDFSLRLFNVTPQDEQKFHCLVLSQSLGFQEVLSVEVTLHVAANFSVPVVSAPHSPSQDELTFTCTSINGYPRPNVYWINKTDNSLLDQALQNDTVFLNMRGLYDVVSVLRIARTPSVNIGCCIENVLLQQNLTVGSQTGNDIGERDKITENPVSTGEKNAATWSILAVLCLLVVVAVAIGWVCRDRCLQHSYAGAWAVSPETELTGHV
As to the kind of experiment: flow cytometry, cells expressing human ICOSL.

Read-outs that look alike come from different tables or passages of the source. No end group written: not given here.

As for BCMA WT-Fc (Fc fusion), in [1], the IC50 (nM) BAFF turned out to be 823 nM and the IC50 BAFF (Δ TACI 30-110-Fc) is 0.14. In experiment [2], the IC50 (nM) APRIL came out at 183 nM and the IC50 APRIL (Δ TACI 30-110-Fc) amounted to 0.05. In experiment [3], the IC50 (nM) BAFF came out at 0.995 nM and the IC50 BAFF (Δ Parental vTD) worked out at 1. In experiment [4], the IC50 (nM) APRIL came out at 1.03 nM and the IC50 APRIL (Δ Parental vTD) came to 1.

B1: 528 TACI CRD2-Fc (Fc fusion, not shown: a dimerising Fc or GST)
chain: SLSCRKEQGKFYDHLLRDCISCASICGQHPKQCAYFCENKLRS
modifications: cysteine pairing not given here; also: Fc fusion, linker and Fc not given here
notes: Fc fusion; also called WT TACI-Fc containing only the CRD2 domain of TACI; TACI 68-110 Fc
On to B1, for which the binding result with recombinant human BAFF and in the experiment with recombinant human APRIL was “binds” throughout.

B2: variant CTLA-4 ECD-Fc G29W/L98Q/Y105L (Fc fusion)
chain: KAMHVAQPAVVLASSRGIASFVCEYASPWKATEVRVTVLRQADSQVTEVCAATYMMGNELTFLDDSICTGTSSGNQVNLTIQGLRAMDTGLYICKVEQMYPPPYLLGIGNGTQIYVIDPEPCPDSDGSGGGGSEPKSSDKTHTCPPCPAPEAEGAPSVFLFPPKPKDTLMISRTPEVTCVVVDVSHEDPEVKFNWYVDGVEVHNAKTKPREEQYNSTYRVVSVLTVLHQDWLNGKEYKCKVSNKALPAPIEKTISKAKGQPREPQVYTLPPSRDELTKNQVSLTCLVKGFYPSDIAVEWESNGQPENNYKTTPPVLDSDGSFFLYSKLTVDKSRWQQGNVFSCSVMHEALHNHYTQKSLSLSPG
Regarding B2, in the experiment with human CD80, the “CD80 IC50” value was 33.6 nM and the “CD80 IC50 (Δ Parental CTLA-4)” value was 1 ratio. In the experiment with human CD86, the “CD86 IC50” value came out at 8.2 nM and the “CD86 IC50 (Δ Parental CTLA-4)” value came out at 1 ratio. In the experiment with human ICOSL, this molecule came in with an MFI of 570 MFI.

B3: variant CTLA-4 ECD-Fc M56T/L98Q/Y105L (Fc fusion)
chain: KAMHVAQPAVVLASSRGIASFVCEYASPGKATEVRVTVLRQADSQVTEVCAATYMTGNELTFLDDSICTGTSSGNQVNLTIQGLRAMDTGLYICKVEQMYPPPYLLGIGNGTQIYVIDPEPCPDSDGSGGGGSEPKSSDKTHTCPPCPAPEAEGAPSVFLFPPKPKDTLMISRTPEVTCVVVDVSHEDPEVKFNWYVDGVEVHNAKTKPREEQYNSTYRVVSVLTVLHQDWLNGKEYKCKVSNKALPAPIEKTISKAKGQPREPQVYTLPPSRDELTKNQVSLTCLVKGFYPSDIAVEWESNGQPENNYKTTPPVLDSDGSFFLYSKLTVDKSRWQQGNVFSCSVMHEALHNHYTQKSLSLSPG
As for B3, the MFI with human ICOSL stood at 700 MFI.
